The labels stand for the following.
B1: mAb4 (antibody, human IgG1, V domains shown)
VH: DVQLVESGGDLVKPGGSLKLSCAASGFAFSSYDMSWVRQSPEKRLEWIAHIGSGGGNIYYPDTVKGRFTISRDNAKNTLYLQMRSLKSEDTAMYYCARLIFTTGFYGMDYWGQGTSVTVSS
VL: DIQMTQTTSSLSASLGDRVTISCRASQDISSYLNWYQQKPDGTIKLLIYYTSRLHSGVPSRFSGSGSGTDYSLTISNLDQDDIATYFCQQGNALPWTFGGGTKLEIK
B2: mAb1 (antibody, human IgG1, V domains shown)
VH: DVQLQESGPGLVKPSQSLSLTCTVTGYSITGGFAWNWIRQFPGNTLEWMGYIGYGGSTSYNPSLNSRISITRDTSKNHFFLQFNSVTTDDSATYYCARGDYLFAYWGQGTLVTVSA
VL: DIVMTQSHKFMSTSVGDRVSITCKASQDVNTAVAWYQQKPGQSPKLLIYSASYRYTGVPDRFTGSGSGTDFTFTISSVQAEDLAVYYCQQHYSTPRTFGGGTKLEIK
B3: mAb3 (antibody, human IgG1, V domains shown)
VH: EVQLLETGPGLVKPSQSLSLTCTVTGYSITGGFAWNWIRQFPGNTLEWMGYIGYGGSTSYNPSLNSRISITRDTSKNHFFLQFNSVTTEDSATYYCARGDYLFAYWGQGTLVTVSA
VL: DILMTQSPASLSASVGETVSITCRASGNIHNYLAWYLQRQGKSPQLLVYNAKTLADGVPSRFSGTGSGTQFSLKINSLQPEDFGSYYCQHFWSTPRTFGGGTKLEIK
B4: mAb2 (antibody, human IgG1, V domains shown)
VH: EVQLQESGPGLVKPSQSLSLTCTVTGYSITGGFAWNWIRQFPGNTLEWMGYIGYGGSTSYNPSLNSRISITRDTSKNHFFLQFNSVTTEDSATYYCARGDYLFAYWGQGTLVTVSA
VL: DIVMTQSHKFMSTSVGDRVSITCKASQDVNTAVAWYQQKPGQSPKLLIYSASYRYTGVPDRFTGSGSGTDFTFTISSVQAEDLAVYYCQQHYSTPRTFGGGTKLEIK
B5: mAb5 (antibody, human IgG1, V domains shown)
VH: EIQLQQSGPELEKPGASVKISCKASGYSFSDYNMNWVKQSNGKSLEWIGNIDPYYGATSYNQRFKGKATLTVDKSSSTAYMQLKSLTSEDSAVYYCARGDSLFAYWGHGTLVTVSA
VL: DIVMTQSQEFMSTSLGDRVSVTCKASQNVGTNVAWYQQKPGQSPKALLYSASSRYSGVPDRFTGSGSGTDFTLTISNVQSEDLAEYFCQQYITYPYTFGGGTKLEIK
B6: mAb6 (antibody, human IgG1, V domains shown)
VH: EIQLQQSGPELEKPGASVKISCKASGYSFSDYNMNWVKQSNGKSLEWIGNIDPYYGATSYNQRFKGKATLTVDKSSSTAYMQLKSLTSEDSAVYYCARGDSLFAYWGQGTLVTVSA
VL: DIVMTQSQEFMSTSLGDRVSVTCKASQNVGTNVAWYQQKPGQSPKALLYSASSRYSGVPDRFTGSGSGTDFTLTINNMQSEDLAEYFCQQYITYPYTFGGGTKLEIK

These results are taken from patent US20200369765A1.

This test concerns the target Siglec-7 and/or Siglec-9 on fresh purified human NK cells. Kind of test: flow cytometry on fresh purified human NK cells, mean of 4 donors. (A flow cytometer gives signals particle by particle.)
The term EC50 denotes the concentration at which the effect is half-maximal. A higher EC50 goes with lower potency in that assay. B1 registered an EC50 of 0.61 mg/L. Molecule B2 showed an EC50 of 0.05 mg/L. Next, B3: 0.19 mg/L; B4: 0.07 mg/L. Next, B5: 1.27 mg/L; B6: 1.3 mg/L.
